pIC50, pKd: −log10 of the molar value.

Assay [1] concerns the target human CD47 with His tag (human) (UniProt Q08722). Put plainly: ELISA; competition with SIRPa-Fc.
Assay [2] concerns the target CD47 (Homo sapiens) (UniProt Q08722). The settings on record: cited from earlier work.

Chain of SIRPα (P97797 32-373): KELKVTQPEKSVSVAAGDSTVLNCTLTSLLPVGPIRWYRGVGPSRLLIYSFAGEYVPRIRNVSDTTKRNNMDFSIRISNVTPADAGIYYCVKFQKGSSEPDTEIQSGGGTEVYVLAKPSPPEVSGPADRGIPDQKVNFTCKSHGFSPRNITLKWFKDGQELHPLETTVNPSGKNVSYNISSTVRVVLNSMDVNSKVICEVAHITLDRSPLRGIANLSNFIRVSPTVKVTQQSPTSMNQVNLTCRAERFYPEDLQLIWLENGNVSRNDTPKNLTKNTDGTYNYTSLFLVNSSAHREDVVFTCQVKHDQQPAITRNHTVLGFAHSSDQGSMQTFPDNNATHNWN
Chain of CD47 (Homo sapiens) (Q08722 19-323): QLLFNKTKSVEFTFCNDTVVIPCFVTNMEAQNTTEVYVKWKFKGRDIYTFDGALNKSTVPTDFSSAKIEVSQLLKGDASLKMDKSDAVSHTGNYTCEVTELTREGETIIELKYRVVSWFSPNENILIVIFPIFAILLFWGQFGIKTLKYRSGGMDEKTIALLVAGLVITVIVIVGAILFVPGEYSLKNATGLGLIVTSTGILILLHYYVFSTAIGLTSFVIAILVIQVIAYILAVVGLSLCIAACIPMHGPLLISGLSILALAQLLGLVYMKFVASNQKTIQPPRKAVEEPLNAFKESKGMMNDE
Chain of human CD47 with His tag (human) (Q08722 19-323): as above

On to B6H12.2, for which the pIC50 in assay [1] was 6.63.

As for SIRPα (from UniProt P97797), the pKd in assay [2] is 6.52.

The values above are taken from PMC10801496.
